Drawing on PMC11401910 (2024), this text covers Ki and Kd for three molecules.

As usually defined, the Ki is the dissociation constant of the complex between target and ligand, obtained from inhibition or displacement.

One experiment concerns the target T1, OmpF (Escherichia coli, UniProt P02931).
T1 chain: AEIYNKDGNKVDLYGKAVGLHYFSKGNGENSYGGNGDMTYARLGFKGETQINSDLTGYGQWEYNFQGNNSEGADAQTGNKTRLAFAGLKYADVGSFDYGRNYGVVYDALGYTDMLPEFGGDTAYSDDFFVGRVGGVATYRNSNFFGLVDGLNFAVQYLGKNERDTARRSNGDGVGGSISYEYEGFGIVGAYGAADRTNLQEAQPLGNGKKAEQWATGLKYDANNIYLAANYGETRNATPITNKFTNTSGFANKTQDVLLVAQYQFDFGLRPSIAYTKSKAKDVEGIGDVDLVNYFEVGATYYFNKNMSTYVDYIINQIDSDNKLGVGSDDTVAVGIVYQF

Experiment [1] addresses T2, tOmpA transmembrane domain (Escherichia coli, UniProt P0A910).
T2 chain: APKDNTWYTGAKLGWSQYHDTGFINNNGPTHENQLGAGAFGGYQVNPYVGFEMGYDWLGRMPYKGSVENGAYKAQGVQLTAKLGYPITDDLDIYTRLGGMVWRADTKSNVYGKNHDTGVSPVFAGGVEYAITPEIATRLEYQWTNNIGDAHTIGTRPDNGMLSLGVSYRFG

A further experiment addresses SurA-core (E. coli, UniProt P0ABZ6 21-428, deleting codons for residues 172–389). Kind of experiment: MST; apparent Kd, Hill fit, 0.8 M urea.
Experiment [2] concerns the target T3, SurA-WT (E. coli, UniProt P0ABZ6 21-428).
T3 chain: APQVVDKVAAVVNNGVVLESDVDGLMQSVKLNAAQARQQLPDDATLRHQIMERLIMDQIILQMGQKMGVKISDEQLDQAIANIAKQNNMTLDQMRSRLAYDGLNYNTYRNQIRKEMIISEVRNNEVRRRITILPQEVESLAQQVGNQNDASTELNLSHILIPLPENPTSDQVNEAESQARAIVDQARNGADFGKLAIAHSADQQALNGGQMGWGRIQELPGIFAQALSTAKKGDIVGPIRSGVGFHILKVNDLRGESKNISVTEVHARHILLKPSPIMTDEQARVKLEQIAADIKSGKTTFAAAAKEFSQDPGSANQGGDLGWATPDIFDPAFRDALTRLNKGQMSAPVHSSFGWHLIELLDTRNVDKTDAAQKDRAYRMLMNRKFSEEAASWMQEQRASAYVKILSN
Kind of experiment: MST; apparent Kd, Hill fit, 0.8 M urea.

In experiment [3] the target is T3, SurA-WT. Kind of experiment: ITC. (In ITC the heat of successive injections is recorded.)

B1: SurA (protein)
chain: T3 chain
B1 showed a Ki in the experiment with OmpF of 5.2 µM. In addition, in experiment [1], the Kd is 3.7 µM.

B2: Cys-OmpX labelled with Alexa Fluor 488 (natural protein)
chain: MGSCATSTVTGGYAQSDAQGQMNKMGGFNLKYRYEEDNSPLGVIGSFTYTEKSRTASSGDYNKNQYYGITAGPAYRINDWASIYGVVGVGYGKFQTTEYPTYKHDTSDYGFSYGAGLQFNPMENVALDFSYEQSRIRSVDVGTWIAGVGYRF
modifications: Alexa Fluor 488 on the N-terminal Cys
Regarding B2, the Kd with SurA-core stood at 5.1 µM; with SurA-WT [2], 1.3 µM.

For the molecule WEYIPNV [WEYIPNV peptide], the Kd with SurA-WT [3] amounted to 5.4 µM.
